According to publication PMC5500810, “Identification and characterization of Nanobodies targeting the EphA4 receptor” (The Journal of Biological Chemistry, 2017):
Read-outs that look alike come from different tables or passages of the source.

Legend:
[1] = biological target: T1, EphA4 ligand-binding domain (human, amino acids 22-203) (human, UniProt P54764, biotin on primary amines (EZ link NHS biotin) in the AlphaScreen assays only)
[2] = biological target: T1, EphA4 ligand-binding domain (human, …); test: SPR; Biacore T200; EphA4 LBD amine-coupled to CM5 chip (300 RU); Nbs (1-300 nM) as analyte, 60 μl/min; 10 mM Hepes, 150 mM NaCl, 3 mM EDTA, 0.01 mM Surfactant P-20, pH 7.35; two-state model; details: both partners purified
[3] = biological target: T2, human EphA4-Fc (R&D Systems) (Homo sapiens, UniProt P54764); test: co-IP; Nb on anti-HA magnetic Dynabeads used to capture recombinant EphA4; EphA4 detected with N-terminal anti-EphA4 antibody; details: both partners purified
T2 construct: EphA4, human; the results call it 'full-length recombinant' receptor, the methods an EphA4-hFc fusion protein from R&D Systems; also called hEphA4-Fc; EphA4-hFc; source: bought: R&D Systems

[4] = biological target: T3, mouse EphA4-Fc (R&D Systems) (mouse, UniProt Q03137); test: co-IP; 2.5 μg recombinant mouse or human EphA4 protein (or recombinant ephrin-B2 as negative control) on protein G magnetic Dynabeads, 1 μg Nb overnight at 4 °C, PBS washes; Nb detected with anti-HA; details: both partners purified
T3 construct: EphA4, mouse; the results call it 'full-length recombinant' receptor, the methods an EphA4-hFc fusion protein from R&D Systems; also called mEphA4-Fc; EphA4-hFc (mouse); source: bought: R&D Systems

[5] = biological target: T4, mouse recombinant EphA7 (Fc-tagged; R&D Systems) (mouse, UniProt Q61772); test: AlphaScreen or HTRF; biotinylated Nbs (100 nM) with subhooking concentrations (10-100 nM) of mouse Fc-tagged Eph receptors; anti-IgG AlphaLISA acceptor and streptavidin donor beads; 50 mM Hepes, 100 mM NaCl, 0.1% Triton, 0.1% BSA; room temperature; details: both partners purified
T4 construct: EphA7, mouse, recombinant, Fc-tagged; source: bought: R&D Systems

[6] = biological target: T5, mouse recombinant EphA3 (Fc-tagged; R&D Systems) (mouse, UniProt P29319); test: as above; details: both partners purified
T5 construct: EphA3, mouse, recombinant, Fc-tagged; source: bought: R&D Systems

[7] = biological target: T1, EphA4 ligand-binding domain (human, …); test: cell-based or functional assay
[8] = biological target: T3, mouse EphA4-Fc (R&D Systems); test: co-IP; Nb on anti-HA magnetic Dynabeads used to capture recombinant EphA4; EphA4 detected with N-terminal anti-EphA4 antibody; details: both partners purified
[9] = biological target: T6, human EphA7 (recombinant, EphA7/ephrin-A5 competition assay) (Homo sapiens, UniProt Q15375); test: AlphaScreen or HTRF; competition: human EphA7 (3 nM) preincubated 1 h with increasing Nb, then biotinylated His-tagged human ephrin-A5 (30 nM); anti-IgG acceptor and streptavidin donor beads; 50 mM Hepes, 100 mM NaCl, 0.1% Triton, 0.1% BSA; details: both partners purified
T6 construct: EphA7, human; Probably an Fc chimera of the extracellular domain, since anti-IgG acceptor beads were used

[10] = biological target: T2, human EphA4-Fc (R&D Systems); test: SPR; Biacore T200; EphA4-hFc (human or mouse) captured (~500 RU) on anti-human Fc antibody; Nbs as analyte; 10 mM Hepes, 150 mM NaCl, 3 mM EDTA, 0.01 mM Surfactant P-20, pH 7.35; 1:1 or two-state model; details: both partners purified
[11] = biological target: T3, mouse EphA4-Fc (R&D Systems); test: as above; details: both partners purified
[12] = biological target: T7, ephrin-B2 (Fc-tagged; R&D Systems) (UniProt P52799); test: co-IP; 2.5 μg recombinant mouse or human EphA4 protein (or recombinant ephrin-B2 as negative control) on protein G magnetic Dynabeads, 1 μg Nb overnight at 4 °C, PBS washes; Nb detected with anti-HA; details: both partners purified
T7 construct: ephrin-B2, recombinant, Fc-tagged (R&D Systems); also called recombinant ephrin-B2; ephrin-B2 ligand; source: bought: R&D Systems

[13] = biological target: T2, human EphA4-Fc (R&D Systems); test: as above; details: both partners purified
[14] = biological target: T8, mouse recombinant EphA8 (Fc-tagged; R&D Systems) (mouse, UniProt O09127); test: AlphaScreen or HTRF; biotinylated Nbs (100 nM) with subhooking concentrations (10-100 nM) of mouse Fc-tagged Eph receptors; anti-IgG AlphaLISA acceptor and streptavidin donor beads; 50 mM Hepes, 100 mM NaCl, 0.1% Triton, 0.1% BSA; room temperature; details: both partners purified
T8 construct: EphA8, mouse, recombinant, Fc-tagged; source: bought: R&D Systems

[15] = biological target: T9, mouse recombinant EphA6 (Fc-tagged; R&D Systems) (mouse, UniProt Q62413); test: as above; details: both partners purified
T9 construct: EphA6, mouse, recombinant, Fc-tagged; source: bought: R&D Systems
T9 sequence (Q62413 23-549): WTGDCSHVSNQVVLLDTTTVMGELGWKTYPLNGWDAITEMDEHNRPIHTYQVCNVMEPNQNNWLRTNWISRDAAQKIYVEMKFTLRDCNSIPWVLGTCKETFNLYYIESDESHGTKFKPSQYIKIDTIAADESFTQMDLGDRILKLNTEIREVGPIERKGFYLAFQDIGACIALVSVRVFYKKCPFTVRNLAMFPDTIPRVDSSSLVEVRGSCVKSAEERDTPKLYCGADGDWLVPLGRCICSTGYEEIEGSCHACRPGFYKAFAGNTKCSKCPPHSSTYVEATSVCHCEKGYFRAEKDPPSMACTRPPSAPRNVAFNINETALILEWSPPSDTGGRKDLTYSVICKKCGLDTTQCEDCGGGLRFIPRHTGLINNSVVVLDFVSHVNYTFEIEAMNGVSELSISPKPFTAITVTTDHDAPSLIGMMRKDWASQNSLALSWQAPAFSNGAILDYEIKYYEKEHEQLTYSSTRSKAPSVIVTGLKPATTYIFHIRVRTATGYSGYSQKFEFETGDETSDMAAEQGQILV

T1 sequence (P54764 22-203): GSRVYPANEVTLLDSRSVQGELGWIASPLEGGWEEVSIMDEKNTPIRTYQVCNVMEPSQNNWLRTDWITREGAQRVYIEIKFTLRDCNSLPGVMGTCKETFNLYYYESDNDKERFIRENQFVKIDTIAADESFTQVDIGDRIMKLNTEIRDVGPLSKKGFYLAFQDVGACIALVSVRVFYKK
T3 sequence (Q03137 20-547): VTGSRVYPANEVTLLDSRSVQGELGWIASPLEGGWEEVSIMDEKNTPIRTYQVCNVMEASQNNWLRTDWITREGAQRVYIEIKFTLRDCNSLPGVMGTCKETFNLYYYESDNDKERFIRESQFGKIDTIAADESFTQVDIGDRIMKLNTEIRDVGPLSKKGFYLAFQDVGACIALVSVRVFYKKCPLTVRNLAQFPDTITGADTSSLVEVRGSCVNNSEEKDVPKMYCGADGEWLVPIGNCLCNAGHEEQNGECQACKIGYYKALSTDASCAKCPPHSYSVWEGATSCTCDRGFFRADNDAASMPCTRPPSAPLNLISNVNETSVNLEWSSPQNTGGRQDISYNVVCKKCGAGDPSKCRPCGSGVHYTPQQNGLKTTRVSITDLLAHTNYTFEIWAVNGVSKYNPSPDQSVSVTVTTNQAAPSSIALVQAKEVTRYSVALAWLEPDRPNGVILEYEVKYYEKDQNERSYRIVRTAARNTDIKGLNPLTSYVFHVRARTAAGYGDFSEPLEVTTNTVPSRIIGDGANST
T2 sequence (P54764 20-547): as the sequence (Q03137 20-547) above, with A59P, S121N, G124V, Q250R, N251S, S270T, R378K, S406N counted along it
T4 sequence (Q61772 28-555): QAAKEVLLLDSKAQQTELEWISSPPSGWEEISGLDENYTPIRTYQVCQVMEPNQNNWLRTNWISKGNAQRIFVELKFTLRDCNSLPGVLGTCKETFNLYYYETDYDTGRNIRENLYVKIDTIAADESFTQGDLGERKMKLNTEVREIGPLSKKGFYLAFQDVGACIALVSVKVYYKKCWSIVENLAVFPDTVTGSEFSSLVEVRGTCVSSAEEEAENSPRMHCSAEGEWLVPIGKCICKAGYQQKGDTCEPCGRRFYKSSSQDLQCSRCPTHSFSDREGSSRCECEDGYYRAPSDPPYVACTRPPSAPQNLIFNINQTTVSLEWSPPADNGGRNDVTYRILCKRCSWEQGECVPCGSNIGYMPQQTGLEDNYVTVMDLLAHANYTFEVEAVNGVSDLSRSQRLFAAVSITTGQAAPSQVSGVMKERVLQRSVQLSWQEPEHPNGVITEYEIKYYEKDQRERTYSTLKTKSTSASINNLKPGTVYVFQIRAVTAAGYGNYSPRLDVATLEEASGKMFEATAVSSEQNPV
T6 sequence (Q15375 28-998): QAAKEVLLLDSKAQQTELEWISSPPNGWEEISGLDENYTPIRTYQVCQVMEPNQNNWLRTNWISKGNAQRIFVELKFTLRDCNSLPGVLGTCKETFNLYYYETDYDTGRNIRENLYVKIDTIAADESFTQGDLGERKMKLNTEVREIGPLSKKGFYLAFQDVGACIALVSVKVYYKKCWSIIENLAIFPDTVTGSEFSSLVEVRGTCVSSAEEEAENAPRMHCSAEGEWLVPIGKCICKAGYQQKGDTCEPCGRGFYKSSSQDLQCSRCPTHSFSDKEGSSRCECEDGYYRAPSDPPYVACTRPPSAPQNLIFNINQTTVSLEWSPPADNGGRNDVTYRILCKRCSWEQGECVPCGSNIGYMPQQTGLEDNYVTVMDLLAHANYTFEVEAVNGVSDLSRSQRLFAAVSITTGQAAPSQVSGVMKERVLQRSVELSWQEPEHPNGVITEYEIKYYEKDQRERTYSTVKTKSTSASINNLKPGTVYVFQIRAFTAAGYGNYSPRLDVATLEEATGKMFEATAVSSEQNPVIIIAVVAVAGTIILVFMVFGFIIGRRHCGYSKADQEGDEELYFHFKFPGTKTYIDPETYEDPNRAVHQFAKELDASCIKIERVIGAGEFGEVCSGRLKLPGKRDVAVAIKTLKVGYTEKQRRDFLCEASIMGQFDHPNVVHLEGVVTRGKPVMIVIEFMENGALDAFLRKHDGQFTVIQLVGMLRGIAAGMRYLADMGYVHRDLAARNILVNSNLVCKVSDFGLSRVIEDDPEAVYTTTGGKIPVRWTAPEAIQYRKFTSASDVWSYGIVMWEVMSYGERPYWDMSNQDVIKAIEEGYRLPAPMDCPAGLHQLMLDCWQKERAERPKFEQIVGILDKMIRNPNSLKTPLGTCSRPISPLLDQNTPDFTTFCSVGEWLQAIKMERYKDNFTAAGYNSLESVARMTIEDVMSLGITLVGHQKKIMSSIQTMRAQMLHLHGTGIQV
T5 sequence (P29319 21-540): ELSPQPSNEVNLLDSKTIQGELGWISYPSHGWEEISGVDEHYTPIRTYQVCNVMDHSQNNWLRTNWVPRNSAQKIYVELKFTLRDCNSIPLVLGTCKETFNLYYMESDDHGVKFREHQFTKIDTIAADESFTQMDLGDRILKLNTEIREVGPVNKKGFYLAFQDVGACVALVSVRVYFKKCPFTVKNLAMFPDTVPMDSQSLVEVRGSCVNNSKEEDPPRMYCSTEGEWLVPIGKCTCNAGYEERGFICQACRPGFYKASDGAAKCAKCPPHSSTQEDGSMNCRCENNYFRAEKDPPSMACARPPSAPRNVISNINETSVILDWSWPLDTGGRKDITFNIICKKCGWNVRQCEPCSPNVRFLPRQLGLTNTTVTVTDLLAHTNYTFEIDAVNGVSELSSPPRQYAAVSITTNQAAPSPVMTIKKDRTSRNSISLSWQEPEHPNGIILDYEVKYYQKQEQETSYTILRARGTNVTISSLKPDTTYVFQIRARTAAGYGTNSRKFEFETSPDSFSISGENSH
T7 sequence (P52799 28-229): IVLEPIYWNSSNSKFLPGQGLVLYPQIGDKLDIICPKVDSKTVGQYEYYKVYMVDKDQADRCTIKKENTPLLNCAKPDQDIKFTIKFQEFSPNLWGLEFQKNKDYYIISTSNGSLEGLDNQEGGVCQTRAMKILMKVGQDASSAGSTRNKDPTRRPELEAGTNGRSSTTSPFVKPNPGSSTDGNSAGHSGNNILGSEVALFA
T8 sequence (O09127 27-541): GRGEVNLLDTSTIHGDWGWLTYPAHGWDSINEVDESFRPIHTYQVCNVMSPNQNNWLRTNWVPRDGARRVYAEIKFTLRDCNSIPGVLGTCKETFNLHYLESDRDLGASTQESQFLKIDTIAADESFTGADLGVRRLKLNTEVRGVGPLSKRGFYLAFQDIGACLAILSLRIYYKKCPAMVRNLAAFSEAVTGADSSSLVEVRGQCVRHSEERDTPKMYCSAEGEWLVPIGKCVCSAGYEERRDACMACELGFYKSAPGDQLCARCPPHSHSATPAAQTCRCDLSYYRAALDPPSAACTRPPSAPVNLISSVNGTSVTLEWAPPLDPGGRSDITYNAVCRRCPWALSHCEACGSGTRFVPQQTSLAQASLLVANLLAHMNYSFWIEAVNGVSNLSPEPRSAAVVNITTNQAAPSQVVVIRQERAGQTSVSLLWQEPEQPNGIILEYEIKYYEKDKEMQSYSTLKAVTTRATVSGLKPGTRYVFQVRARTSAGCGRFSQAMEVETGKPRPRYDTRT

B1: Nb 71 (VHH)
VHH: QVQLQESGGGLVQPGGSLRLSCAASGFTFSSYWMYWVRQTPGKGLEWVSGINSPGSITGYADSVKGRFTISRDNAKNTLYLQMNSLKSDDTAVYYCARDLTYGGNSLRYIERGQGTQVTVSS
B1: binds [1].

B2: Nb 57 (VHH)
VHH: QVQLQESGGGLVQPGGSLRLSCAASGFTFSSYYMYWVRQAPGKGLEWVSTINTGGGSTNYADSVKGRFIISRDNAKNTVYLQMNSLKPEDTAVYYCNAFAAGWGPDYWGQGTQVTVSS
notes: Cloned in the phagemid pMECS; Same clonal group as Nb 19; also called Nanobody 57; source: E. coli WK6, periplasmic extract, purified (His GraviTrap, Sephadex G25)
B2: binds [2]; binds [3]; binds [4]. B2: binds [5]; binds [6].

B3: Nb 34 (VHH)
VHH: QVQLQESGGGLVQAGGSLRLSCAASGFTFSSYAMSWVRQAPGKGLEWVSGINTGGGSTYYADSVKGRFTISRDNAKNTLYLQMNSLKSEDTAVYYCVPRVGVLEGLTSFGSWGQGTQVTVSS
notes: Cloned in the phagemid pMECS; Same clonal group as Nb 47; also called Nanobody 34; source: E. coli WK6, periplasmic extract, purified (His GraviTrap, Sephadex G25)
B3: no binding (tested: 1–300 nM) [2].

B4: Nb 47 (VHH)
VHH: QVQLQESGGGLVQPGGSLRLSCAASGFTFSSYAMSWVRQAPGKGLEWVSGINTGGGSTYYADSVKGRFTISRDNAKNTLYLQMNSLKSEDTAVYYCVPRVGVLEGLTSFGSWGQGTQVTVSS
notes: Cloned in the phagemid pMECS; Same clonal group as Nb 34; also called Nanobody 47; source: E. coli WK6, periplasmic extract, purified (His GraviTrap, Sephadex G25)
B4: no binding (tested: 1–300 nM) [2].

B5: Nb 28 (VHH)
VHH: QVQLQESGGGLVQAGGSLRLSCAASGFTFSSNWMYWVRQAPGKGLEWVSGINSGGSSTYYSDSVKGRFTISRDNAKNTLYLQMNSLKPEDTAVYYCAKYSGSYYYRRGPGTQVTVSS
B5: binds [1].

B6: Nb 39 (VHH)
VHH: QVQLQESGGGLVQPGGSLKLSCAASGFTFSTYAMSWVRQAPGKGLEWVSRINSGGGYTWHADSVKGRFTISRDNARNTVYLQMNNLKPEDTAVYYCTNLNTGWRPEYWGQGTQVTVSS
notes: Cloned in the phagemid pMECS; also called Nanobody 39; source: E. coli WK6, periplasmic extract, purified (His GraviTrap, Sephadex G25)
B6 was tested, and the “IC50 of inhibition of ephrin-A1-induced EphA4 phosphorylation (PathHunter assay, EphA4-expressing U2OS cells); blocks ephrin-A1 with EphA4” value [7] was 170 nM, the binding result [8] was “binds” and the binding result [9] was “binds”.

B7: Nb 16 (VHH)
VHH: QVQLQESGGGLVQPGGSLRLSCAASGFTFSNYAMSWVRQAPGKGLEWVSGINKGGGSAYYSDSVKGRFTISRDNAENTLYLQMNNLKPEDTAVYYCVIPWGLGSNEYDYWGQGTQVTVSS
B7: binds [1].

B8: Nb 90 (VHH)
VHH: QVQLQESGGGLVQPGGSLRLSCAASGFTFSSHWIYWVRQAPGKQRELVAAITSGGSTNYADSVKGRFTISRDNAKNTVFLQMNSLKPEDTAVYYCNAWGFLLGDIEDYWGQGTQVTVSS
B8: binds [1].

B9: Nb 60 (VHH)
VHH: QVQLQESGGGLVQPGGSLRLSCAASGFTFSRYWIYWVRQAPGKQRELVAAITRNGVTNYADSVKGRFTISTDDNKNTVYLQMNSLKSEDTAVYYCNAWGFLLGDIEDYWGQGTQVTVSS
notes: Cloned in the phagemid pMECS; Same clonal group as Nb 90; also called Nanobody 60; source: E. coli WK6, periplasmic extract, purified (His GraviTrap, Sephadex G25)
B9: binds [2]; binds [10]; binds [11]. B9: binds [12].

B10: Nb 22 (VHH)
VHH: QVQLQESGGGPVRAGESLRLSCTASGRAFSTYTMGWFRQAPGKERELVAVITPGGNTNYADSVKGRFTISRDDAKNTVYLQMNSLKPVDTAVYYCHVVLAVVGTGNEYDVWGQGTQVTVSS
notes: Cloned in the phagemid pMECS; also called Nanobody 22; source: E. coli WK6, periplasmic extract, purified (His GraviTrap, Sephadex G25)
With B10 the binding result [2] was “binds”, the “fold difference in binding affinity between human and mouse EphA4” value [11] was 2 fold and the binding result [13] was “binds”.

B11: Nb 10 (VHH)
VHH: QVQLQESGGGLVQAGGSLRLSCAASGRTFSSYAMGWFRQAPGTKREMIAAVTKAGTTSYANPVKGRFTISRDDAKNMVYLQMNNLKPEDSAVYYCNAISPLWDEYDFWGPGTQVTVSS
B11: binds [1].

B12: Nb 31 (VHH)
VHH: QVQLQESGGGLVQAGGSLRLSCAASGFASDAYAIGWFRQAPGTKREMIAAVTKAGATNYANPVKGRFTISRDDAKNMVYLQMNNLKPEDSAVYYCNAISPLWDEYDFWGPGTQVTVSS
notes: Cloned in the phagemid pMECS; Same clonal group as Nb 50, 10 and 53; also called Nanobody 31; source: E. coli WK6, periplasmic extract, purified (His GraviTrap, Sephadex G25)
B12: binds [2]; binds [8]; binds [13].

B13: Nb 53 (VHH)
VHH: QVQLQESGGGVVQAGGSLRLSCAASGRAFSSYAMGWFRQAPGTKREMIAAVTRAGTTNYANPVKGRFTISRDDAKNMVYLQMNNLKPEDSAVYYCNAISPLWDEYDFWGPGTQVTVSS
notes: Cloned in the phagemid pMECS; Same clonal group as Nb 31, 50 and 10; also called Nanobody 53; source: E. coli WK6, periplasmic extract, purified (His GraviTrap, Sephadex G25)
With B13 the “IC50 of inhibition of ephrin-A1-induced EphA4 phosphorylation (PathHunter assay, EphA4-expressing U2OS cells); blocks ephrin-A1 with EphA4” value [7] was 261 nM, the binding result [8] was “binds” and the binding result [9] was “binds”.

B14: Nb 50 (VHH)
VHH: QVQLQESGGGLVQAGGSLRLSCAASGRTFNSYAEAWFRQAPGKEREMIAAVTKAGTTNYANPVKGRFTISRDDAKNMVYLQMNNLKPEDSAVYYCNAISPLWDEYDFWGPGTQVTVSS
notes: Cloned in the phagemid pMECS; Same clonal group as Nb 31, 10 and 53; also called Nanobody 50; source: E. coli WK6, periplasmic extract, purified (His GraviTrap, Sephadex G25)
B14: binds [2]; binds [3]; binds [8]. B14: binds [5]; binds [14]; binds [15]. B14: binds [6].

B15: Nb 19 (VHH)
VHH: QVQLQESGGGLVQPGGSLRLSCAATGRNFNAYSIAWFRQAPGKEREFVASINWSGSNTYYAVAVKGRFTTSRDNAKNTVYLQMNSLKPEDTAVYYCNAFAAGWGPDYWGQGTQVTVSS
notes: Cloned in the phagemid pMECS; Same clonal group as Nb 57; also called Nanobody 19; source: E. coli WK6, periplasmic extract, purified (His GraviTrap, Sephadex G25)
B15: binds [2].
